Test results as given in PMC7261888, “Crystal Structure of Geranylgeranyl Pyrophosphate Synthase (CrtE) Involved in Cyanobacterial Terpenoid Biosynthesis” (Frontiers in Plant Science, 2020).

Target: the molecule itself
Experiment: SEC; HiLoad 16/60 Superdex 200 pg, 25 mM Tris-HCl pH 7.5, 500 mM NaCl, 4 °C, 1 mL/min; mass estimated from the elution volume

B1: Synechococcus sp. PCC 7002 CrtE (geranylgeranyl pyrophosphate synthase) (enzyme, UniProt B1XJV9 1-302, looked up)
chain: MVVADAHTQGFSLAQYLQEQKTIVETALDQSLVITEPVTIYEAMRYSLLAGGKRLRPILCLAACEMLGGTAAMAMNTACALEMIHTMSLIHDDLPAMDNDDLRRGKPTNHKVYGEDIAILAGDALLSYAFEYVARTPDVPAERLLQVIVRLGQAVGAEGLVGGQVVDLESEGKTDVAVETLNFIHTHKTGALLEVCVTAGAILAGAKPEEVQLLSRYAQNIGLAFQIVDDILDITATAEELGKTAGKDLEAQKVTYPSLWGIEKSQAEAQKLVAEAIASLEPYGEKANPLKALAEYIVNRKN
notes: CrtE (type II geranylgeranyl pyrophosphate synthase) of Synechococcus sp; PCC 7002, gene crtE, locus SYNPCC7002_A1085; amplified from genomic DNA with primers from the ATG to the stop codon; predicted 302 residues; Expressed from pHUE as an N-terminal His-tagged ubiquitin fusion and freed by deubiquitinase; also called Syn7002 CrtE; Syn7002 GGPPS; source: E. coli BL21(DE3), purified (Ni-NTA, …)
stoichiometry N: 2
